ChEMBL document CHEMBL1908105, “UDP-glucuronosyltransferases and clinical drug-drug interactions” (Pharmacol Ther, 2005)

Tests used:
[1] = target: T1, UDP-glucuronosyltransferase 1A4 (Homo sapiens, UniProt P22310); assay: Drug glucuronidation reaction catalyzed by human recombinant UGT1A4
T1 sequence (P22310 whole entry): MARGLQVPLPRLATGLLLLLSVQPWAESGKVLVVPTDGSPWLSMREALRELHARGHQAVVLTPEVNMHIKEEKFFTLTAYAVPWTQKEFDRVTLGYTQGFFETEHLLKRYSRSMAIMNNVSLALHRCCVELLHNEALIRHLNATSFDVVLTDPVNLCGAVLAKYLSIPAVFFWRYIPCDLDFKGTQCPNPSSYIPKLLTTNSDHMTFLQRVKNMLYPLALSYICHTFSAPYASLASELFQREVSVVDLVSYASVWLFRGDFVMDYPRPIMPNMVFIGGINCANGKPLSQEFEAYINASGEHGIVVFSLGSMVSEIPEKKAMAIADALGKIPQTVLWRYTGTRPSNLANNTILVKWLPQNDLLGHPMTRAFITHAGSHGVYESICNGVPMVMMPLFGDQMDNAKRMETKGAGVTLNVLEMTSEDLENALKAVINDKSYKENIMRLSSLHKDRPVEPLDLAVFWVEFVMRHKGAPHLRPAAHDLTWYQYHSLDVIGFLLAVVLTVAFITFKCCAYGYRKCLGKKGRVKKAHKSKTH

[2] = target: T2, UDP-glucuronosyltransferase 1A1 (Homo sapiens, UniProt P22309); assay: Drug glucuronidation reaction catalyzed by human recombinant UGT1A1
T2 sequence (P22309 whole entry): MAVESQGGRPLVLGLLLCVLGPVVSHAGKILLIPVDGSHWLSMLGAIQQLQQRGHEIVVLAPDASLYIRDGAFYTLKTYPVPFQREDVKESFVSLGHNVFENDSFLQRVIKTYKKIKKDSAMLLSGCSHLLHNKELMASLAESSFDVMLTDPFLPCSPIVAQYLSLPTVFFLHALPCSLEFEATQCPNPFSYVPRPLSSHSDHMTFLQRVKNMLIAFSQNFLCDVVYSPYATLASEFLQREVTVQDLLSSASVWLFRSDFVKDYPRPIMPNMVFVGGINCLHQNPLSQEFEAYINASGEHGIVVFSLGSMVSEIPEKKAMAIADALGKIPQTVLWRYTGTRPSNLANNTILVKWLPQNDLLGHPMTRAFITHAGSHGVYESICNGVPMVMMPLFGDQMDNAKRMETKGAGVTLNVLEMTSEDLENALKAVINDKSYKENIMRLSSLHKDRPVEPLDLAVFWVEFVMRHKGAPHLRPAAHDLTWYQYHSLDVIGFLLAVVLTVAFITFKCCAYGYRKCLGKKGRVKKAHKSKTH

[3] = target: T3, UDP-glucuronosyltransferase 1A9 (Homo sapiens, UniProt O60656); assay: Drug glucuronidation reaction catalyzed by human recombinant UGT1A9
T3 sequence (O60656 whole entry): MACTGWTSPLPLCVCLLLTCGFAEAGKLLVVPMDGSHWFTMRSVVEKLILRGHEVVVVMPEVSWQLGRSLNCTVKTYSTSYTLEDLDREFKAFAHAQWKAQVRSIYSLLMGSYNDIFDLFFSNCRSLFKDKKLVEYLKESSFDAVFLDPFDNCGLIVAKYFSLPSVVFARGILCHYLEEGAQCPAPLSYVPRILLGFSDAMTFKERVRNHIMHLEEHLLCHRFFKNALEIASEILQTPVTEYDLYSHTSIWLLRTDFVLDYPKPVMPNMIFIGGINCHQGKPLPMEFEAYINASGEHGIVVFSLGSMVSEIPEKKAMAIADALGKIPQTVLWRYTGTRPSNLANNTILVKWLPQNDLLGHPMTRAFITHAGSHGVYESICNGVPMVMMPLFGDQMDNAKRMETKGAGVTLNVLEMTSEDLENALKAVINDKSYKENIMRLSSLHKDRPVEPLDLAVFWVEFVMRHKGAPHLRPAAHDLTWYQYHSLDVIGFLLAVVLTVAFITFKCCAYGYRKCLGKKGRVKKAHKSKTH

[4] = target: UDP-glucuronosyltransferase 2B15 (Homo sapiens, UniProt P54855); assay: Drug glucuronidation reaction catalyzed by human recombinant UGT2B15
Sequence of UDP-glucuronosyltransferase 2B15 (P54855 whole entry): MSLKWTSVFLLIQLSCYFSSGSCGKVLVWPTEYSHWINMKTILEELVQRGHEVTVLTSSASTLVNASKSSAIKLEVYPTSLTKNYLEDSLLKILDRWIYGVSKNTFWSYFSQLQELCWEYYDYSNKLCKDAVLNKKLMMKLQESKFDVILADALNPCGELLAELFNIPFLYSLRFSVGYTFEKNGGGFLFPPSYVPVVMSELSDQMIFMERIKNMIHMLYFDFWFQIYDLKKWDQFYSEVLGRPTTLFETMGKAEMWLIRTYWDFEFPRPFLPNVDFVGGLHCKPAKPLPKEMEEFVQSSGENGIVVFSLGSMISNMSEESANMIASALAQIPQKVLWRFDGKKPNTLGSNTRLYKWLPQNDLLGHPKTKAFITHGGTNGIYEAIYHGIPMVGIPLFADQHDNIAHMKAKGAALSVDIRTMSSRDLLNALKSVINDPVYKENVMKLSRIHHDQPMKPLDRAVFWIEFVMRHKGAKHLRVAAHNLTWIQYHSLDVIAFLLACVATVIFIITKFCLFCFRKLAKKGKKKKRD

[5] = Inhibition of AZT (0.02 mM) glucuronidation by human UGT enzymes from liver microsomes; set-up: species or system Microsome
[6] = target: T4, UDP-glucuronosyltransferase 2B7 (Homo sapiens, UniProt P16662); assay: (§1) Drug glucuronidation reaction catalyzed by human recombinant UGT2B7
T4 sequence (P16662 whole entry): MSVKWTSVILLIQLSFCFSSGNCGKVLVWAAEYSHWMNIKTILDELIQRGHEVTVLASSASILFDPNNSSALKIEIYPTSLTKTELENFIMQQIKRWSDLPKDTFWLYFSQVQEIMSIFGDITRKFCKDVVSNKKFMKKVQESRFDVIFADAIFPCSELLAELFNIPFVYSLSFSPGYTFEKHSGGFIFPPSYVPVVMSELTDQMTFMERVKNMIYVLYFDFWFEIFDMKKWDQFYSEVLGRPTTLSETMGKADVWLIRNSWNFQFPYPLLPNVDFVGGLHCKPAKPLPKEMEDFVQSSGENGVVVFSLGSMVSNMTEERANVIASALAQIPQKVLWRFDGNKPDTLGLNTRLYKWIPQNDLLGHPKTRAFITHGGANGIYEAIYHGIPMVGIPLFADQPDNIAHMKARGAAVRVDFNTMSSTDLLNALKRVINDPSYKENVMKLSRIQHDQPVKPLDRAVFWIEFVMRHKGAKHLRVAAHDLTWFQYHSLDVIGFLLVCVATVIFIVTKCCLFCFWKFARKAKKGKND

UGT2B7 = target: T5, UGT2B7 (Homo sapiens, UniProt P16662); assay: as §1; settings: recombinant UGT2B7
T5 sequence (P16662 whole entry): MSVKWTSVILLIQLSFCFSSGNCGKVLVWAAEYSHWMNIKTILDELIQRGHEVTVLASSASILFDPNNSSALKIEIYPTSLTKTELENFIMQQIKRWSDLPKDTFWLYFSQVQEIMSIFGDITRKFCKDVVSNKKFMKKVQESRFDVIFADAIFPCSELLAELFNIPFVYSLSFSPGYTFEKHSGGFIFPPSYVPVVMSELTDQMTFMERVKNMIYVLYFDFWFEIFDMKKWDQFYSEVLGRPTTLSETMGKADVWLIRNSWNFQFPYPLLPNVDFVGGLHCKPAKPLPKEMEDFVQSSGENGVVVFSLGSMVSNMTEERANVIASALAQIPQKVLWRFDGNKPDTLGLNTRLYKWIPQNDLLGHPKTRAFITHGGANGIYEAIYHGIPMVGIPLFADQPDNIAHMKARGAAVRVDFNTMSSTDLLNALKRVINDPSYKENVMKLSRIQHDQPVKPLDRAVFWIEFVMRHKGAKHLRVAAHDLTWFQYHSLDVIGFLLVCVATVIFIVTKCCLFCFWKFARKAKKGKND

[7] = Inhibition of AZT glucuronidation by human UGT enzymes from liver microsomes; set-up: species or system Microsome
[8] = target: T6, UDP-glucuronosyltransferase 1A3 (Homo sapiens, UniProt P35503); assay: (§2) Drug glucuronidation reaction catalyzed by human recombinant UGT1A3
T6 sequence (P35503 whole entry): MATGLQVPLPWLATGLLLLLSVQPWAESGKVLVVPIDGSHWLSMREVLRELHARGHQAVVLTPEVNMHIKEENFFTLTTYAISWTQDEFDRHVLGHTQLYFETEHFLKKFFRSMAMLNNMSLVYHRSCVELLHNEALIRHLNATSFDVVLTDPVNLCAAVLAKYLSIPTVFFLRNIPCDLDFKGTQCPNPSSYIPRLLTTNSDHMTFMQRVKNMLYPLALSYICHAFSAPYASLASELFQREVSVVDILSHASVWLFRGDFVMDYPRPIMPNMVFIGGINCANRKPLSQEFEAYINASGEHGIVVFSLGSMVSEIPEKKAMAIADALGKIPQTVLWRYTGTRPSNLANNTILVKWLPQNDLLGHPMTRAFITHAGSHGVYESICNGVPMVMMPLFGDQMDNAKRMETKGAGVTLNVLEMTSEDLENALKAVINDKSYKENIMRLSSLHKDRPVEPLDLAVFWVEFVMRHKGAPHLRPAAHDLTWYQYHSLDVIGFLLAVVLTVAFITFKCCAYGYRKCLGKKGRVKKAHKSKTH

UGT1A3 = UGT1A3 (Homo sapiens, UniProt P35503); assay: as §2; settings: recombinant UGT1A3
[9] = substrate: CS(=O)(=O)c1ccc(C2=C(c3ccccc3)C(=O)OC2O)cc1; assay: as §1
[10] = substrate: CO[C@]12CC[C@@]3(C[C@@H]1[C@](C)(O)C(C)(C)C)[C@H]1Cc4ccc(O)c5c4[C@@]3(CCN1CC1CC1)[C@H]2O5; assay: as §1
[11] = substrate: COc1ccc(Cl)cc1[C@]1(F)C(=O)Nc2cc(C(F)(F)F)ccc21; assay: as §1
[12] = substrate: CC(C)Cc1ccc(C(C)C(=O)O)cc1; assay: as §1
[13] = substrate: CCC[S+]([O-])CCCN(CC)CC(O)COc1ccc(C#N)cc1; assay: as §1
[14] = substrate: CC(C(=O)O)c1cccc(C(=O)c2ccccc2)c1; assay: as §1
[15] = substrate: C=CCN1CC[C@]23c4c5ccc(O)c4O[C@H]2[C@@H](O)C=C[C@H]3[C@H]1C5; assay: as §1
[16] = substrate: O=C1[C@H](CC[C@H](O)c2ccc(F)cc2)[C@@H](c2ccc(O)cc2)N1c1ccc(F)cc1; assay: as §1
[17] = substrate: C=CC[C@@H]1/C=C(\C)C[C@H](C)C[C@H](OC)[C@H]2O[C@@](O)(C(=O)C(=O)N3CCCC[C@H]3C(=O)O[C@H](/C(C)=C/[C@@H]3CC[C@@H](O)[C@H](OC)C3)[C@H](C)[C@@H](O)CC1=O)[C@H](C)C[C@@H]2OC; assay: as §1
[18] = substrate: NC(=O)N1c2ccccc2C=Cc2ccccc21; assay: as §1
[19] = substrate: COc1cccc2c1C(=O)c1c(O)c3c(c(O)c1C2=O)C[C@@](O)(C(=O)CO)C[C@@H]3O[C@H]1C[C@H](N)[C@@H](O)[C@H](C)O1; assay: as §1
not read [20] = substrate: Cc1c(Cl)cccc1Nc1ncccc1C(=O)O; assay: not read
not read [21] = substrate: O=C1Nc2ccc(Cl)cc2C(c2ccccc2)=N[C@H]1O; assay: not read
not read [22] = substrate: O=C1Nc2ccc(Cl)cc2C(c2ccccc2)=N[C@@H]1O; assay: not read

CC(O)/C(=C(\c1ccccc1)c1ccc(OCCN(C)C)cc1)c1ccccc1 (stereo in doubt; cis)
Vmax [1]: 315 pmol/min/mg protein | Vmax [2]: 291 pmol/min/mg protein | Vmax [3]: 57 pmol/min/mg protein | Vmax [4]: 720 pmol/min/mg protein

O=C1C(O)=C([C@H]2CC[C@H](c3ccc(Cl)cc3)CC2)C(=O)c2ccccc21 [ATOVAQUONE]
IC50 [5]: > 273 µM

OC(Cn1cncn1)(Cn1cncn1)c1ccc(F)cc1F [FLUCONAZOLE]
IC50 [5]: 163 µM

CC(C(=O)O)c1ccc(-c2ccccc2)c(F)c1 (stereo not drawn) [FLURBIPROFEN]
Vmax [6]: 315 pmol/min/mg protein | Km (UGT2B7): 28 µM | Ki [7]: 50 µM | Vmax [8]: 45 pmol/min/mg protein | Km (UGT1A3): 90 µM

CC(O)/C(=C(\c1ccccc1)c1ccc(OCCN(C)C)cc1)c1ccccc1 (stereo in doubt; trans)
Vmax [1]: 547 pmol/min/mg protein | Vmax [2]: 166 pmol/min/mg protein | Vmax [3]: 72 pmol/min/mg protein | Vmax [4]: 70 pmol/min/mg protein

B1: UDP-glucuronosyltransferase 2B7 (Homo sapiens) (protein)
chain: MSVKWTSVILLIQLSFCFSSGNCGKVLVWAAEYSHWMNIKTILDELIQRGHEVTVLASSASILFDPNNSSALKIEIYPTSLTKTELENFIMQQIKRWSDLPKDTFWLYFSQVQEIMSIFGDITRKFCKDVVSNKKFMKKVQESRFDVIFADAIFPCSELLAELFNIPFVYSLSFSPGYTFEKHSGGFIFPPSYVPVVMSELTDQMTFMERVKNMIYVLYFDFWFEIFDMKKWDQFYSEVLGRPTTLSETMGKADVWLIRNSWNFQFPYPLLPNVDFVGGLHCKPAKPLPKEMEDFVQSSGENGVVVFSLGSMVSNMTEERANVIASALAQIPQKVLWRFDGNKPDTLGLNTRLYKWIPQNDLLGHPKTRAFITHGGANGIYEAIYHGIPMVGIPLFADQPDNIAHMKARGAAVRVDFNTMSSTDLLNALKRVINDPSYKENVMKLSRIQHDQPVKPLDRAVFWIEFVMRHKGAKHLRVAAHDLTWFQYHSLDVIGFLLVCVATVIFIVTKCCLFCFWKFARKAKKGKND
Km [9]: 42 µM | Vmax [9]: 4.7e-05 µmol/min/mg | Km [10]: 24 µM | Vmax [10]: 2.6e-05 µmol/min/mg | Km [11]: 14 µM | Vmax [11]: 0.00029 µmol/min/mg | Km [12]: 55 µM | Vmax [12]: 0.000477 µmol/min/mg | Km [13]: 970 µM | Vmax [13]: 2.1e-05 µmol/min/mg | Km [14]: 112 µM | Vmax [14]: 0.00045 µmol/min/mg | Km [15]: 260 µM | Vmax [15]: 0.000461 µmol/min/mg | Km [16]: 21 µM | Vmax [16]: 5e-05 µmol/min/mg | Km [17]: 449 µM | Vmax [17]: 0.000588 µmol/min/mg | Km [18]: 214 µM | Vmax [18]: 1e-06 µmol/min/mg | Km [19]: 149 µM | Vmax [19]: 9.9e-05 µmol/min/mg | Km (not read [20]): 64 µM | Vmax (not read [20]): 0.00022 µmol/min/mg | Km (not read [21]): 203 µM | Vmax (not read [21]): 2e-06 µmol/min/mg | Km (not read [22]): 333 µM | Vmax (not read [22]): 7e-06 µmol/min/mg
